Measured values from patent publication US12491161B2, “Single vial vaccine formulations” (priority 2013, dated 2025).

Legend:
[1] = Stability under continuous cold-chain maintenance; assay type: physicochemical; settings: 4° C.
[2] = Emulsion particle size and polydispersity by dynamic light scattering (DLS); assay type: physicochemical
Protocol: Emulsion particle size, polydispersity (PdI), and zeta potential were evaluated using dynamic light scattering (DLS) on a Malvern (Worcestershire, UK) Nano-ZS. Measurements were performed generally as previously described (Fox et al., 2011, Pharmaceutical Development and Technology, 16(5):511-519). Briefly, all DLS size measurements were performed in 10^−2 dilutions into 20 nm filtered water (described above) and evaluated in triplicate on single aliquots. For zeta-potential measurements, the same aliquot was evaluated using triplicate measurements and an automatic software determination of the measurement duration between 20 and 40 runs.
Particle size, polydispersity, and zeta potential measurements were made as described previously (Fox et al., 2008, Colloids and Surfaces B: Biointerfaces, 65:98-105) using a Malvern (Worcestershire, UK) Nano-ZS after 100 times dilution into ultrapure water filtered through a 20 nm Whatman (Maidstone, Kent, UK) Anotop plus filter. Nanoparticle tracking analysis was performed with a NanoSight LM10 (Amesbury, UK) with a 405 nm laser and a Hamamatsu Orca Flash 2.8 CMOS camera (Hamamatsu, JP). Samples were diluted 1:105 in 20-nm filtered ultrapure water in three steps. Each sample was diluted and analyzed four times, independently, to account for dilution error. Ninety seconds of video were recorded for each sample with optimized shutter and gain settings. The camera histogram gating was adjusted to maximize sensitivity. Data analysis was performed using NanoSight NTA 2.3 software (Wiltshire, UK) in standard mode.

B1: ID93: recombinant tandem fusion protein antigen of Mtb Rv3619, Rv1813, Rv3620 and Rv2608 (SEQ ID NO: 1 or 2) (protein)
chain: MGSSHHHHHHSSGLVPRGSHMTINYQFGDVDAHGAMIRAQAGSLEAEHQAIISDVLTASDFWGGAGSAACQGFITQLGRNFQVIYEQANAHGQKVQAAGNNMAQTDSAVGSSWAGTHLANGSMSEVMMSEIAGLPIPPIIHYGAIAYAPSGASGKAWHQRTPARAEQVALEKCGDKTCKVVSRFTRCGAVAYNGSKYQGGTGLTRRAAEDDAVNRLEGGRIVNWACNELMTSRFMTDPHAMRDMAGRFEVHAQTVEDEARRMWASAQNISGAGWSGMAEATSLDTMTQMNQAFRNIVNMLHGVRDGLVRDANNYEQQEQASQQILSSVDINFAVLPPEVNSARIFAGAGLGPMLAAASAWDGLAEELHAAAGSFASVTTGLAGDAWHGPASLAMTRAASPYVGWLNTAAGQAAQAAGQARLAASAFEATLAATVSPAMVAANRTRLASLVAANLLGQNAPAIAAAEAEYEQIWAQDVAAMFGYHSAASAVATQLAPIQEGLQQQLQNVLAQLASGNLGSGNVGVGNIGNDNIGNANIGFGNRGDANIGIGNIGDRNLGIGNTGNWNIGIGITGNGQIGFGKPANPDVLVVGNGGPGVTALVMGGTDSLLPLPNIPLLEYAARFITPVHPGYTATFLETPSQFFPFTGLNSLTYDVSVAQGVTNLHTAIMAQLAAGNEVVVFGTSQSATIATFEMRYLQSLPAHLRPGLDELSFTLTGNPNRPDGGILTRFGFSIPQLGFTLSGATPADAYPTVDYAFQYDGVNDFPKYPLNVFATANAIAGILFLHSGLIALPPDLASGVVQPVSSPDVLTTYILLPSQDLPLLVPLRAIPLLGNPLADLIQPDLRVLVELGYDRTAHQDVPSPFGLFPDVDWAEVAADLQQGAVQGVNDALSGLGLPPPWQPALPRLFST
[1]
  stability under continuous cold-chain maintenance: stable for more than a year
[2]; 50° C. for 30 days
  effect of heat stress on particle size: reduced the average particle size observed; however, this was not statistically significant
[2]; 50° C. for 30 days, liquid or lyophilized formats
  effect of heat stress on polydispersity: did not affect the polydispersity
[2]; unstressed
  particle size (Z-average diameter): approximately 70 nm
